For assay [1], the target named is T1, recombinant cynomolgous monkey PSMA extracellular domain (ECD) protein (Macaca fascicularis, UniProt Q04609 48-750 (human entry), biotin on the Avi tag).
T1 construct: also called cyno PSMA ECD; PSMG1
T1 chain: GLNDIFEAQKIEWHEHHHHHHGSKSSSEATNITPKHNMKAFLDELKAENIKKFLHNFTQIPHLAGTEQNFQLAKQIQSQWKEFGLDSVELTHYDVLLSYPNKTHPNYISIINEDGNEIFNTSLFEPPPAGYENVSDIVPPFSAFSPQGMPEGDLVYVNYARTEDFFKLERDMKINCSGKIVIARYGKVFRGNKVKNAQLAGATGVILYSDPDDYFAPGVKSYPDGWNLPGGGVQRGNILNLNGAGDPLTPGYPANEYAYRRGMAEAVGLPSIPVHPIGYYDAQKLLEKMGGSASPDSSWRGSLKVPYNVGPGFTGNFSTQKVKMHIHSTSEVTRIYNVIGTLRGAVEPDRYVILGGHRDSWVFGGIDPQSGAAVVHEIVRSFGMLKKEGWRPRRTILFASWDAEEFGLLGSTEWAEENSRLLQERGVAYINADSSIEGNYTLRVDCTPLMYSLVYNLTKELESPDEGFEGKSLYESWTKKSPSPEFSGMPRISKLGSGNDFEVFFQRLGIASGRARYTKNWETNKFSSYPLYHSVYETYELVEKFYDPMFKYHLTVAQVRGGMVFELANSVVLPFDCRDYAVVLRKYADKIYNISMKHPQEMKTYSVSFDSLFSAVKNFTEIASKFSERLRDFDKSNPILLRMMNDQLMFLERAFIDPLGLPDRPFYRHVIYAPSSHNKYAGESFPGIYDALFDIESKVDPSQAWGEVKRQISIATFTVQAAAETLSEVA
The assay is described as follows: SPR ProteOn.

The target of assay [2] is T2, recombinant human PSMA extracellular domain (ECD) protein (human, UniProt Q04609 44-750).
T2 construct: also called human PSMA ECD
The assay is described as follows: SPR ProteOn.

Assay [3] addresses T3, recombinant chimpanzee PSMA extracellular domain (ECD) protein (Pan troglodytes, UniProt Q04609 44-750 (human entry)).
T3 construct: also called Chimp PSMA ECD; PSMG8
T3 chain: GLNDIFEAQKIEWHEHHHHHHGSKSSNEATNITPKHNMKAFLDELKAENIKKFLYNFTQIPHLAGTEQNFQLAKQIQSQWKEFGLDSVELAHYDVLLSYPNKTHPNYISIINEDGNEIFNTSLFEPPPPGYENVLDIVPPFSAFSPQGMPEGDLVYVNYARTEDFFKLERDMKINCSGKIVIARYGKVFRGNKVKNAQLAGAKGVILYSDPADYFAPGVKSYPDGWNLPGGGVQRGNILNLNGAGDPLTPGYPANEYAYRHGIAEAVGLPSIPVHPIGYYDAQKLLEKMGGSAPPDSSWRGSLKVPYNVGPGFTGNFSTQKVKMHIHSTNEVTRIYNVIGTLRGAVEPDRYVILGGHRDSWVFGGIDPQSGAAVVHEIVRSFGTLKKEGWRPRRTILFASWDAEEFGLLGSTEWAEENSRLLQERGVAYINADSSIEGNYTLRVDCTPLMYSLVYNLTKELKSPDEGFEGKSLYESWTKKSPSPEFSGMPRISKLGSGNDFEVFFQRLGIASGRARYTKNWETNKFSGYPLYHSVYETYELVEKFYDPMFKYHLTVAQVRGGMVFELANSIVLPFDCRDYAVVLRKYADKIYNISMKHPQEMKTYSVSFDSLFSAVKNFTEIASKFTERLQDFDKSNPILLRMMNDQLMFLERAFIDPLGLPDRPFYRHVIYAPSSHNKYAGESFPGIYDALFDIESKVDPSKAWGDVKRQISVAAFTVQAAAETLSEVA
The assay is described as follows: SPR ProteOn.

For assay [4], the target named is T4, human CD3ε on primary human T cells (human, UniProt P07766 23-207).
T4 construct: whole, on cells; Part of the TCR-CD3 complex on the cells; also called cell-surface CD3ε; CD3E
Nature of the assay: FACS, primary human T cells. On the technique in general: Flow cytometry measures light scatter and fluorescence of single cells or particles in a stream.

Assay [5] deals with T5, human PSMA (prostate specific membrane antigen), full length (human, UniProt Q04609 1-750).
T5 construct: On LNCaP or C4-2B cells (endogenous) or transduced HEK293F cells; also called FOLH1_HUMAN; hPSMA
Nature of the assay: flow cytometry, bispecific antibody titrated on human PSMA HEK cells, anti-human kappa light chain PE. The method, then: (§1) PSMA×CD3 bispecific antibodies were tested for binding to PSMA positive cell lines LNCAP, human PSMA-HEK, Chimpanzee-PSMA-HEK and Cynomolgous monkey PSMA-HEK. To assess the binding capabilities of the PSMA bispecific antibodies, the cell-binding assay was utilized (described previously). Briefly, PSMA expressing tumor cells are bound by bispecific antibodies at known concentrations and the bound antibody is detected by an anti-human kappa light chain PE conjugated detection reagent (Invitrogen). The Mean Fluorescents Intensity (MFI) is the measure of bound bispecific antibody. The MFI is converted to a relative EC₅₀. EC₅₀ is a commonly used dose-response curve, where the half maximal effective concentration or the EC₅₀ point is defined as the inflection point of the curve. EC₅₀ s were determined by measuring cell bound bispecific and known concentrations. […] The dose response curves were then diluted down to that of background or no bispecific binding. The inflection point of this curve reflects the EC₅₀ point. The calculated EC₅₀ is determined by taking the ug/ml amount of bispecific antibody at the EC₅₀ point and converting it to a molarity value based on the MW of the bispecific antibody. Bispecific antibodies were normalized for protein concentration and then incubated with the same number of cells expressing either human or cyno PSMA. […]

Assay [6] concerns the target T5, human PSMA (prostate specific membrane …). The assay is described as follows: flow cytometry, bispecific antibody titrated on LNCaP cells (human PSMA), anti-human kappa light chain PE. The protocol: as §1
For assay [7] the target is unchanged. The description is as above. The protocol:
PSMA×CD3 bispecific antibodies were tested for binding to PSMA positive cell lines LNCAP, human PSMA-HEK, Chimpanzee-PSMA-HEK and Cynomolgous monkey PSMA-HEK. To assess the binding capabilities of the PSMA bispecific antibodies, the cell-binding assay was utilized (described previously). Briefly, PSMA expressing tumor cells are bound by bispecific antibodies at known concentrations and the bound antibody is detected by an anti-human kappa light chain PE conjugated detection reagent (Invitrogen). The Mean Fluorescents Intensity (MFI) is the measure of bound bispecific antibody. The MFI is converted to a relative EC₅₀. EC₅₀ is a commonly used dose-response curve, where the half maximal effective concentration or the EC₅₀ point is defined as the inflection point of the curve. EC₅₀ s were determined by measuring cell bound bispecific and known concentrations. […] The dose response curves were then diluted down to that of background or no bispecific binding. The inflection point of this curve reflects the EC₅₀ point. The calculated EC₅₀ is determined by taking the ug/ml amount of bispecific antibody at the EC₅₀ point and converting it to a molarity value based on the MW of the bispecific antibody. Bispecific antibodies were normalized for protein concentration and then incubated with the same number of cells expressing either human or cyno PSMA. The MFI at each concentration was collected by flow cytometry and plotted as a function of concentration. Data was transformed via log 10 and then plotted. Nonlinear regression of binding curves was done to determine EC₅₀ s. These relative values were used for ranking PSMA binding to target cells.
The source holds these as a separate data set.

Positions count from the first letter of the chain named. In names and notes the source's numbering stands.

T4 sequence (P07766 23-207): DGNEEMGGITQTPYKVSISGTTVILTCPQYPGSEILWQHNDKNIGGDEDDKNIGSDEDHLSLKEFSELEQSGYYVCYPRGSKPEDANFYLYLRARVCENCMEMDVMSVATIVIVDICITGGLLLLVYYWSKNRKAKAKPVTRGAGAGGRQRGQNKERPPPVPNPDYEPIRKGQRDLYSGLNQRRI
T5 sequence (Q04609 whole entry): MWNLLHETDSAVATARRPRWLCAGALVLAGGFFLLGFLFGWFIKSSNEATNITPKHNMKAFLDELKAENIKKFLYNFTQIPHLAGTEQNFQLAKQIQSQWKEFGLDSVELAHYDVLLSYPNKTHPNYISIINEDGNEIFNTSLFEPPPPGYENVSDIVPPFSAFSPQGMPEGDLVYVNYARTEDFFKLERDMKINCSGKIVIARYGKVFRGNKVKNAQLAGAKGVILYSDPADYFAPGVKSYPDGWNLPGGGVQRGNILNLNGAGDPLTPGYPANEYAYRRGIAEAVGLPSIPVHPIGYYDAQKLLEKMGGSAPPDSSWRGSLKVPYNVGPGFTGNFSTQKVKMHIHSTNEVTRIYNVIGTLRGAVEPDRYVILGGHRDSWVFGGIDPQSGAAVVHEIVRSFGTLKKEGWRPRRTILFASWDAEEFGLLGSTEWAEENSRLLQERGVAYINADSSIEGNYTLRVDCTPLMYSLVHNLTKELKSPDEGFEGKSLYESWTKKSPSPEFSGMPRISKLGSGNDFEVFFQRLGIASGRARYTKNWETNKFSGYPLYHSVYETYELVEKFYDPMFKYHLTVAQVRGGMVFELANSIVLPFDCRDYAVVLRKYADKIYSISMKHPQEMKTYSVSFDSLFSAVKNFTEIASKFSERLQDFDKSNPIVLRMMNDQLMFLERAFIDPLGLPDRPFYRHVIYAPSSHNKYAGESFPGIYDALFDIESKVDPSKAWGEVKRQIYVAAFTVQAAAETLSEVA

B1: PSMB123 (antibody, human IgG4 S228P, kappa, F234A L235A, V domains shown)
VH: EVQLVQSGAEVKKPGESLKISCKGSGYSFTSYWIGWVRQMPGKGLEWMGIIYPGDSDTRYSPSFQGQVTISADKSISTAYLQWSSLKASDTAMYYCARGLPIWYLDYWGQGTLVTVSS
VL: EIVLTQSPATLSLSPGERATLSCRASQSVASDLAWYQQKPGQAPRLLIYFASNRATGIPARFSGSGSGTDFTLTISSLEPEDFAVYYCQQSITWPFTFGQGTKVEIKR
notes: IgG4 with S228P, F234A, L235A; also called mAb of Fab PSMB55
Take B1: the figures for the Kd in assay [1], in assay [2] and in assay [3] were 66.7 nM, 9.03 nM and 14.3 nM, respectively.

B2: PSMB127 (antibody, human IgG4 S228P, kappa, F234A L235A, V domains shown)
VH: EVQLLESGGGLVQPGGSLRLSCAASGFTFKSDAMHWVRQAPGKGLEWVSEISGSGGYTNYADSVKGRFTISRDNSKNTLYLQMNSLRAEDTAVYYCARDSYDSSLYVGDYFDYWGQGTLVTVSS
VL: B1 VL with A30S, D32Y, F50D, S91R, I92S, T93N, F96L
notes: IgG4 with S228P, F234A, L235A; also called mAb of Fab PSMB83
Consider B2, for which the values for the dissociation constant (Kd) in assay [1], in assay [2] and in assay [3] were 6.68 nM, 12 nM and 12.8 nM, respectively.

B3: PSMB130 (antibody, human IgG4 S228P, kappa, F234A L235A, V domains shown)
VH: QVQLVQSGAEVKKPGSSVKVSCKASGGTFKSYDISWVRQAPGQGLEWMGGIIPIEGTANYAQKFQGRVTITADESTSTAYMELSSLRSEDTAVYYCARDYPAGYGFDYWGQGTLVTVSS
VL: not shown
notes: IgG4 with S228P, F234A, L235A; also called mAb of Fab PSMB86
On to B3, for which the Kd stood at 29.6 nM in assay [2] and 31.7 nM in assay [3].

B4: CD3B144 (antibody, V domains shown)
VH: EVQLVESGGGLVQPGGSLRLSCAASGFTFNTYAMNWVRQAPGKGLEWVARIRSKYNNYATYYAASVKGRFTISRDDSKNSLYLQMNSLKTEDTAVYYCARHGNFGNSYVSWFAYWGQGTLVTVSS
VL: QSVLTQPPSVSAAPGQKVTISCRSSTGAVTTSNYANWVQQLPGTAPKGLIGGTNKRAPGIPDRFSGSKSGTSATLGITGLQTGDEADYYCALWYSNLWVFGGGTKLTVL
notes: also called CD3H141/CD3L64
As for B4, in assay [4], the binding result was “no binding (tested: 10 µg/ml (normalised))”.

B5: CD3B152 (antibody, V domains shown)
VH: B4 VH with V5L, A64D, D76N, S80T, K89R, T90A, A99V, R100K
VL: B4 VL
notes: also called CD3H143/CD3L64
For the molecule B5, the binding result in assay [4] is recorded as “no binding (tested: 10 µg/ml (normalised))”.

B6: PS3B7 (M59) (bispecific antibody, human IgG4 S228P, kappa, lambda, F234A L235A)
heavy chain, PSMA arm (PSMB87, Fab PSMB58): not shown
light chain, PSMA arm (PSMB87, Fab PSMB58): not shown
heavy chain, CD3 arm (CD3B217): EVQLLESGGGLVQPGGSLRLSCAASGFTFNTYAMNWVRQAPGKGLEWVARIRSKYNNYATYYADSVKGRFTISRDNSKNTLYLQMNSLRAEDTAVYYCVKHGNFGNSYVSWFAYWGQGTLVTVSSASTKGPSVFPLAPCSRSTSESTAALGCLVKDYFPEPVTVSWNSGALTSGVHTFPAVLQSSGLYSLSSVVTVPSSSLGTKTYTCNVDHKPSNTKVDKRVESKYGPPCPPCPAPEAAGGPSVFLFPPKPKDTLMISRTPEVTCVVVDVSQEDPEVQFNWYVDGVEVHNAKTKPREEQFNSTYRVVSVLTVLHQDWLNGKEYKCKVSNKGLPSSIEKTISKAKGQPREPQVYTLPPSQEEMTKNQVSLTCLVKGFYPSDIAVEWESNGQPENNYKTTPPVLDSDGSFLLYSKLTVDKSRWQEGNVFSCSVMHEALHNHYTQKSLSLSLGK
light chain, CD3 arm (CD3B217): QAVVTQEPSLTVSPGGTVTLTCRSSTGAVTTSNYANWVQQKPGQAPRGLIGGTNKRAPGTPARFSGSLLGGKAALTLSGAQPEDEAEYYCALWYSNLWVFGGGTKLTVLGQPKAAPSVTLFPPSSEELQANKATLVCLISDFYPGAVTVAWKADSSPVKAGVETTTPSKQSNNKYAASSYLSLTPEQWKSHRSYSCQVTHEGSTVEKTVAPTECS
notes: also called PSMB87 x CD3B217
Regarding B6, the half-maximal effective concentration (EC50 (read off the curve)) in assay [5], in assay [6] and in assay [7] was around 1 µg/mL throughout.

B7: PS3B12 (M87) (bispecific antibody, human IgG4 S228P, kappa, lambda, F234A L235A)
heavy chain, PSMA arm (PSMB130): not shown
light chain, PSMA arm (PSMB130): not shown
heavy chain, CD3 arm (CD3B217): B6 heavy chain, CD3 arm (CD3B217)
light chain, CD3 arm (CD3B217): B6 light chain, CD3 arm (CD3B217)
notes: also called PSMB130 x CD3B217
As to B7, the “EC50 (read off the curve)” value in assay [6] is around 1 µg/mL.

As usually defined, the Kd is the concentration at which binding is half-saturated. As usually defined, the EC50 (read off the curve) is the midpoint of the concentration-response curve.

The values are drawn from US20200024360A1 (Janssen / Centocor, published 2020).
